Results as given in paper doi:10.1101/2021.07.14.452405.

Experiments:
[1] = target: Melbournevirus major capsid protein (Melbournevirus); assay: cryo-EM structure
[2] = target: Melbournevirus penton base protein (Melbournevirus); assay: cryo-EM structure

Row | Substance | stoichiometry N [1] | stoichiometry N [2]
1 | Melbournevirus major capsid protein (natural protein) | 3 | –
2 | Melbournevirus penton base protein (natural protein) | – | 5
